From patent publication US20220211817A1, “CONTROLLED-RELEASE CNP AGONISTS WITH LOW NPR-C BINDING” (ASCENDIS PHARMA GROWTH DISORDERS A/S, priority 2016, published 2022)
Where two headings read alike, the source gives them in different places. Bridge positions count the residues as written; N and C are the ends. Side chains are listed from the residue outwards. Ends that are not written are not given here. reversible linker = not defined here

Legend:
[1] = Pharmacokinetic study of permanent conjugate 12 g in cynomolgus monkeys; assay type: in vivo
Experimental: As internal standard deuterated CNP-38 peptide was used.
After 4 hours incubation at 37° C. […] The eluates were transferred into vials. 10 μL were injected into the UPLC-MS system.

recombinant human NEP = biological target: T1, recombinant human NEP (Homo sapiens, UniProt P08473); assay: Digest of CNP variants by Neutral Endopeptidase in vitro; assay type: in vitro ADME; conditions: 100 μg CNP equivalents/mL, pH 7.4, 37° C., up to 4 days, normalized to mean CNP-34 or CNP-38 half life
T1 construct: purchased Enzo Life Sciences GmbH, Lörrach, Germany
T1 sequence (P08473 whole entry): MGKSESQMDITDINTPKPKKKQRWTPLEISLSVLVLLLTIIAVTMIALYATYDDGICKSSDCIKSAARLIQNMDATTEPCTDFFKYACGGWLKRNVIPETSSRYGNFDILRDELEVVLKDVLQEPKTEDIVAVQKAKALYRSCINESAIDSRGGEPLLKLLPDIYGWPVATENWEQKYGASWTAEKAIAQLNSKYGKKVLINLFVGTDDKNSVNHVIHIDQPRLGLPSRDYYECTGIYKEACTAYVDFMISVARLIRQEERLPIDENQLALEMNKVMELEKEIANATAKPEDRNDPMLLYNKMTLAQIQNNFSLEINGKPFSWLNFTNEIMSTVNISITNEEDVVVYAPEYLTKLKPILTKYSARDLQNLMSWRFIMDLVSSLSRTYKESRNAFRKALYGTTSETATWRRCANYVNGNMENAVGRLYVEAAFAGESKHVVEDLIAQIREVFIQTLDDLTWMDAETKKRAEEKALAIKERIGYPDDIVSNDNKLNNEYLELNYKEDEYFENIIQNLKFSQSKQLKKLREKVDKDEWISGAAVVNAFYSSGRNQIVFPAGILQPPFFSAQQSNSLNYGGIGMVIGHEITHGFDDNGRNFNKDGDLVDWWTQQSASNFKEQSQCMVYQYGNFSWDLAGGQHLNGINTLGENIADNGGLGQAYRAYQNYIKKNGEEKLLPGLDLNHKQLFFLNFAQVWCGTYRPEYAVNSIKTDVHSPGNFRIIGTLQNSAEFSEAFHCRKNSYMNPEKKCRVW
Description: Samples were taken at different time intervals. […] The resulting reaction products were assigned using HPLC-MS.

[2] = Pharmacokinetic profile of CNP-38 after subcutaneous single-dose administration to cynomolgus monkeys; conditions: single s.c. 40 μg/kg
Experimental: This study was performed in order to test the pharmacokinetics of CNP-38 after subcutaneous (s.c.) administration in cynomolgus monkeys. Three male monkeys (2-4 years old, 3-5 kg) received a single s.c. injection at a dose of 40 μg/kg of CNP-38.
Method: Plasma levels of CNP were analysed using a commercially available competitive radioimmuno-assay (RK-012-03, Phoenix Pharmaceuticals, CA). The assay was applied essentially as described by the manufacturer.
A few changes to the supplied assay protocol were made. These changes included using in-house CNP calibrant and QC samples to secure consistency between assay runs.
Male Crl:CD1(ICR) mice = assay: Evaluation of cardiovascular effects in the conscious telemetered mouse (subcutaneous administration); assay type: in vivo; conditions: 800 μg CNP-38 (eq)/kg subcutaneous; for change in MAP at the 5, 15, and 30 min post dose sampling time points (in words): compared to predose
Experimental: Male Crl:CD1(ICR) mice (age range 8-13 weeks and body weight range 27.3-35.6 g at start of dosing) were surgically implanted with a TA11PA-C10 telemetry transmitter (Data Sciences International (DSI)) in the carotid artery. The body of the transmitter was placed subcutaneously in the lateral flank of the mouse. The mice were dosed subcutaneously in a latin square crossover design with at least 72 hours between dosing occasions. […] At least four mice were included at each dose level. […] Each time point was presented as the average value of five minute's recording prior to the time point. The monitoring period was selected to cover exposure to the test items both prior to and after Tmax.

[3] = Pharmacokinetic study of transient conjugates 10f and 11i in cynomolgus monkeys; conditions: single subcutaneous, 0.146 mg CNP-38 eq/kg
[4] = cynomolgus monkey, in vivo, sc
healthy volunteers [5] = conditions: Phase 1 study; cited from earlier work
[6] = after iv administration; cited from earlier work
healthy volunteers [7] = conditions: CNP injection; cited from earlier work
[8] = Pharmacokinetic profile of conjugate 11i after subcutaneous single-dose administration to cynomolgus monkeys; conditions: single s.c. 40 μg CNP-38 eq/kg
Experimental: As internal standard deuterated CNP-38 conjugate was used.
200 μL of the supernatant were transferred into a new well-plate and evaporated to dryness (under a gentle nitrogen stream at 35° C.). […] After 3 hours incubation at 37° C. […] 10 μL were injected into the UHPLC-MS system.

Permanent Lys26 CNP-38 PEG4×10 kDa Conjugate [Compound 12g]
bioavailability ([1]; cynomolgus monkey, in vivo): ca. 50%
dose site reactions ([1]; cynomolgus monkey, in vivo): No dose site reactions were observed
half life time of CNP-38 content ([1]; cynomolgus monkey, in vivo, iv): approx. 24 h
tolerability of dose administrations ([1]; single intravenous or subcutaneous, 0.146 mg CNP-38 eq/kg): well tolerated
half life norm. (recombinant human NEP): Almost no proteolysis

CC[C@H](C)[C@@H]1NC(=O)[C@H](CCCNC(=N)N)NC(=O)[C@H](CC(=O)O)NC(=O)[C@H](CC(C)C)NC(=O)[C@H](CCCCN)NC(=O)[C@H](CC(C)C)NC(=O)CNC(=O)[C@H](Cc2ccccc2)NC(=O)[C@@H](NC(=O)CNC(=O)[C@H](CCCCN)NC(=O)[C@H](CO)NC(=O)[C@H](CC(C)C)NC(=O)CNC(=O)[C@H](CCCCN)NC(=O)[C@H](CCCCN)NC(=O)[C@H](CC(N)=O)NC(=O)[C@H](C)NC(=O)CNC(=O)[C@H](CCCCN)NC(=O)[C@H](Cc2ccc(O)cc2)NC(=O)[C@H](CCCCN)NC(=O)[C@H](CCCNC(=N)N)NC(=O)[C@H](C)NC(=O)[C@H](CC(N)=O)NC(=O)[C@@H]2CCCN2C(=O)[C@H](Cc2c[nH]cn2)NC(=O)[C@H](CCC(=O)O)NC(=O)[C@H](CCC(N)=O)NC(=O)[C@@H](N)CC(C)C)CSSC[C@@H](C(=O)O)NC(=O)CNC(=O)[C@H](CC(C)C)NC(=O)CNC(=O)[C@H](CO)NC(=O)[C@H](CCSC)NC(=O)[C@H](CO)NC(=O)CNC1=O [CNP-38, reference compound]
tolerability [2]: well tolerated
HR (heart rate) (Male Crl:CD1(ICR) mice): not impacted
MAP 5 min post dose (mean ± SD) (Male Crl:CD1(ICR) mice): 102.0 ± 7.5 mmHg
MAP 15 min post dose (mean ± SD) (Male Crl:CD1(ICR) mice): 89.5 ± 29.4 mmHg
MAP 30 min post dose (mean ± SD) (Male Crl:CD1(ICR) mice): 99.5 ± 25.2 mmHg
change in MAP at the 5, 15, and 30 min post dose sampling time points (in words) (Male Crl:CD1(ICR) mice): significant decrease in MAP
MAP predose (mean ± SD) (Male Crl:CD1(ICR) mice; predose): 106.8 ± 13.4 mmHg

Reversible Lys26 CNP-38 PEG2×20 kDa Conjugate (LQEHPNARKYKGANKKGLSKGCFGLKLDRIGSMSGLGC; not fully specified (residue 26); ends and bridges not checked; also: reversible linker structure not given here; UniProt P23582 89-126, looked up, fragment) [Compound 10f]
tolerability of dose administrations [3]: well tolerated
dose site reactions [4]: No dose site reactions were observed

BMN-111: a CNP variant with increased NEP resistance in development for the treatment of achondroplasia (PGQEHPNARKYKGANKKGLSKGCFGLKLDRIGSMSGLGC; disulfide 23-39; chains of the INN, looked up)
haemodynamic effect (healthy volunteers [5]): mild hypotension

Permanent Lys26 CNP-38 PEG 5 kDa Conjugate (LQEHPNARKYKGANKKGLSKGCFGLK(PEG 5 kDa)LDRIGSMSGLGC; cysteine pairing not given here; UniProt P23582 89-126, looked up, fragment) [Compound 19e]
half life norm. (recombinant human NEP): 62.76 h

Permanent N-Terminal CNP-38 PEG 5 kDa Conjugate ({PEG 5 kDa}-LQEHPNARKYKGANKKGLSKGCFGLKLDRIGSMSGLGC; disulfide 22-38; also: permanent PEG attachment; UniProt P23582 89-126, looked up, fragment) [Compound 15e]
half life norm. (recombinant human NEP): Almost no proteolysis

Permanent Lys22 CNP-34 PEG 5 kDa Conjugate [Compound 18e]
half life norm. (recombinant human NEP): 38.87 h

CNP: C-type natriuretic peptide as named in the background section
half-life [6]: 2 min
effect on blood pressure and heart rate (healthy volunteers [7]): transient but significant decrease in both systolic and diastolic blood pressure with a significant increase in heart rate

Reversible Lys26 CNP-38 PEG4×10 kDa Conjugate (LQEHPNARKYKGANKKGLSKGCFGLK([reversible linker-PEG 4×10 kDa])LDRIGSMSGLGC; ends and bridges not checked; also: reversible linker structure not given here; UniProt P23582 89-126, looked up, fragment) [Compound 11i, CNP-38 reversibly linked at Lys26 to a 4×10 kDa PEG carrier, first branching point close to CNP]
tolerability [8]: well tolerated
tolerability of dose administrations [3]: well tolerated
dose site reactions [4]: No dose site reactions were observed
terminal half life [4]: 72 to 96 h
HR (heart rate) (Male Crl:CD1(ICR) mice): not impacted
MAP 5 min post dose (mean ± SD) (Male Crl:CD1(ICR) mice): 122.8 ± 5.9 mmHg
MAP 15 min post dose (mean ± SD) (Male Crl:CD1(ICR) mice): 121.5 ± 7.5 mmHg
MAP 30 min post dose (mean ± SD) (Male Crl:CD1(ICR) mice): 111.5 ± 13.7 mmHg
blood pressure (conclusion) (Male Crl:CD1(ICR) mice): did not decrease blood pressure
change in MAP at the 5, 15, and 30 min post dose sampling time points (in words) (Male Crl:CD1(ICR) mice): same physiological increase in MAP

Permanent Lys16 CNP-34 PEG 5 kDa Conjugate (PNARKYKGANKKGLSK(PEG 5 kDa)GCFGLKLDRIGSMSGLGC; cysteine pairing not given here; UniProt P23582 93-126, looked up, fragment) [Compound 17e]
half life norm. (recombinant human NEP): 54.23 h
